{"source": "patent US20240293509A1", "about": "“METHODS OF TREATING INFLAMMATORY BOWEL DISEASE” (UNIVERSITY OF PITTSBURGH - OF THE COMMONWEALTH SYSTEM OF …, priority 2021, published 2024)", "assay": "In vitro degradation of IL-2 in simulated gastric fluid", "assay_type": "in vitro ADME", "conditions": "free IL-2, pH 2.0, 100 min, 37° C., ELISA", "description": "In silico and in vitro degradation of bioactive factors within the gastric environment. The in silico cytokine degradation was predicted using the Expasy PeptideCutter software package (E. Gasteiger et al., in The Proteomics Protocols Handbook, J. M. Walker, Ed. (Humana Press, Totowa, N J, 2005), pp. 571-607). In vitro degradation of IL-2 was measured in simulated gastric fluid (Ricca Chemical Company, Arlington, Texas) at pH 2.0. For the second set of the experimental conditions, pepsin (3.2 μg/L, Sigma) was also included. The samples were incubated for […] at 37° C. on a rocker and then neutralized before ELISA assay (R and D systems) for the soluble factors. For the MP containing factors, following treatment in the simulated gastric fluid the MPs were removed and washed multiple times with PBS supplemented with BSA and then incubated for 22 hours in PBS with 0.5% BSA. The released IL-2 was then quantitated with an ELISA excluding that which was released during the initial […] incubation in the simulated gastric fluid."}
{"substance": "IL-2: recombinant IL-2 (murine, R&D Systems); in silico prediction on SEQ ID NO: 9", "values": [{"measurement": "degradation in simulated gastric fluid containing pepsin", "result": "complete degradation"}]}
